This assay concerns the target methemoglobin (UniProt P69905). Description: ELISA. A general note: ELISA stands for enzyme-linked immunosorbent assay.

Consider “DEPC-treated wild-type ShuA (from UniProt P72412 1-660) (natural protein)”, for which the percent loss of hemoglobin binding against the untreated sample turned out to be 60%.
Turning to “DEPC-treated wild-type ShuA further treated with hydroxylamine (from UniProt P72412 1-660) (natural protein)”, the percent loss of hemoglobin binding against the untreated sample was 40%.
What is called EC50 is the concentration at which the effect is half-maximal. A lower EC50 goes with higher potency in that assay. With “purified ShuA Ala-L11 (non-phage-displayed) (from UniProt P72412 1-660) (natural protein)”, the EC50 stood at 530 nM.
Substance “purified ShuA H86A/H420A (non-phage-displayed) (natural protein)” yielded an EC50 of 6900 nM.
Regarding “purified wild-type ShuA (non-phage-displayed) (from UniProt P72412) (natural protein; other documents disagree on this pair)”, the EC50 turned out to be 530 nM.

The values above are taken from article PMC5564213.
